# In patent US20230048960A1 (University of Washington, published 2023):
# Square brackets hold non-standard residues; d marks the D form. dNle = CCCC[C@@H](N)C(=O)O; Nle = CCCC[C@H](N)C(=O)O
# B1: AP500d (peptide)
# peptide: Ac-RGN[dW]N[dE]S[dK]MNEYSGW[dM]L[dM]C[dT]MGR-NH2
# modifications: also: disulfide-linked homodimer via Cys19
# B2: AP526d (peptide)
# peptide: Ac-[dR]G[dE]M[dN]L[dS]W[dM][dN][dE][dY][dS]G[dW]T[dM]N[dC]K[dM]G[dR]-NH2
# modifications: also: homodimer: D-Cys19 disulfide-bonded to D-Cys19 of other copy
# B3: AP530m (peptide)
# peptide: Ac-RGE[dC]N[dY]F[dW]MNEYYGW[dT]M[dN]M[dR]MGK-NH2
# SMILES: CSCC[C@H](NC(=O)[C@@H](CCCNC(=N)N)NC(=O)[C@H](CCSC)NC(=O)[C@@H](CC(N)=O)NC(=O)[C@H](CCSC)NC(=O)[C@H](NC(=O)[C@H](Cc1c[nH]c2ccccc12)NC(=O)CNC(=O)[C@H](Cc1ccc(O)cc1)NC(=O)[C@H](Cc1ccc(O)cc1)NC(=O)[C@H](CCC(=O)O)NC(=O)[C@H](CC(N)=O)NC(=O)[C@H](CCSC)NC(=O)[C@@H](Cc1c[nH]c2ccccc12)NC(=O)[C@H](Cc1ccccc1)NC(=O)[C@@H](Cc1ccc(O)cc1)NC(=O)[C@H](CC(N)=O)NC(=O)[C@@H](CS)NC(=O)[C@H](CCC(=O)O)NC(=O)CNC(=O)[C@H](CCCNC(=N)N)NC(C)=O)[C@H](C)O)C(=O)NCC(=O)N[C@@H](CCCCN)C(N)=O
# B4: AP531m (peptide)
# peptide: Ac-RGE[dC]N[dY]F[dW]MNEYYGW[dT]M[dN]M[dR][Nle]GK-NH2
# SMILES: CCCC[C@H](NC(=O)[C@@H](CCCNC(=N)N)NC(=O)[C@H](CCSC)NC(=O)[C@@H](CC(N)=O)NC(=O)[C@H](CCSC)NC(=O)[C@H](NC(=O)[C@H](Cc1c[nH]c2ccccc12)NC(=O)CNC(=O)[C@H](Cc1ccc(O)cc1)NC(=O)[C@H](Cc1ccc(O)cc1)NC(=O)[C@H](CCC(=O)O)NC(=O)[C@H](CC(N)=O)NC(=O)[C@H](CCSC)NC(=O)[C@@H](Cc1c[nH]c2ccccc12)NC(=O)[C@H](Cc1ccccc1)NC(=O)[C@@H](Cc1ccc(O)cc1)NC(=O)[C@H](CC(N)=O)NC(=O)[C@@H](CS)NC(=O)[C@H](CCC(=O)O)NC(=O)CNC(=O)[C@H](CCCNC(=N)N)NC(C)=O)[C@H](C)O)C(=O)NCC(=O)N[C@@H](CCCCN)C(N)=O
# B5: AP531d (peptide)
# peptide: Ac-RGE[dC]N[dY]F[dW]MNEYYGW[dT]M[dN]M[dR][Nle]GK-NH2
# modifications: also: disulfide-linked homodimer via Cys4
# B6: AP532m (peptide)
# peptide: Ac-RGE[dM]C[dY]F[dW]MNEYYGW[dT]M[dN]M[dR][Nle]GK-NH2
# SMILES: CCCC[C@H](NC(=O)[C@@H](CCCNC(=N)N)NC(=O)[C@H](CCSC)NC(=O)[C@@H](CC(N)=O)NC(=O)[C@H](CCSC)NC(=O)[C@H](NC(=O)[C@H](Cc1c[nH]c2ccccc12)NC(=O)CNC(=O)[C@H](Cc1ccc(O)cc1)NC(=O)[C@H](Cc1ccc(O)cc1)NC(=O)[C@H](CCC(=O)O)NC(=O)[C@H](CC(N)=O)NC(=O)[C@H](CCSC)NC(=O)[C@@H](Cc1c[nH]c2ccccc12)NC(=O)[C@H](Cc1ccccc1)NC(=O)[C@@H](Cc1ccc(O)cc1)NC(=O)[C@H](CS)NC(=O)[C@@H](CCSC)NC(=O)[C@H](CCC(=O)O)NC(=O)CNC(=O)[C@H](CCCNC(=N)N)NC(C)=O)[C@H](C)O)C(=O)NCC(=O)N[C@@H](CCCCN)C(N)=O
# B7: AP532d (peptide)
# peptide: Ac-RGE[dM]C[dY]F[dW]MNEYYGW[dT]M[dN]M[dR][Nle]GK-NH2
# modifications: also: disulfide-linked homodimer via Cys5
# B8: AP533m (peptide)
# peptide: Ac-RGE[dNle]N[dY]F[dW]MNEYYGW[dT]M[dN]M[dR]CGK-NH2
# SMILES: CCCC[C@@H](NC(=O)[C@H](CCC(=O)O)NC(=O)CNC(=O)[C@H](CCCNC(=N)N)NC(C)=O)C(=O)N[C@@H](CC(N)=O)C(=O)N[C@H](Cc1ccc(O)cc1)C(=O)N[C@@H](Cc1ccccc1)C(=O)N[C@H](Cc1c[nH]c2ccccc12)C(=O)N[C@@H](CCSC)C(=O)N[C@@H](CC(N)=O)C(=O)N[C@@H](CCC(=O)O)C(=O)N[C@@H](Cc1ccc(O)cc1)C(=O)N[C@@H](Cc1ccc(O)cc1)C(=O)NCC(=O)N[C@@H](Cc1c[nH]c2ccccc12)C(=O)N[C@@H](C(=O)N[C@@H](CCSC)C(=O)N[C@H](CC(N)=O)C(=O)N[C@@H](CCSC)C(=O)N[C@H](CCCNC(=N)N)C(=O)N[C@@H](CS)C(=O)NCC(=O)N[C@@H](CCCCN)C(N)=O)[C@H](C)O
# B9: AP501m (peptide)
# peptide: Ac-RGN[dW]N[dE]S[dK]MNEYYGW[dM]L[dM]C[dT]MGR-NH2
# SMILES: CSCC[C@H](NC(=O)[C@@H](CCCCN)NC(=O)[C@H](CO)NC(=O)[C@@H](CCC(=O)O)NC(=O)[C@H](CC(N)=O)NC(=O)[C@@H](Cc1c[nH]c2ccccc12)NC(=O)[C@H](CC(N)=O)NC(=O)CNC(=O)[C@H](CCCNC(=N)N)NC(C)=O)C(=O)N[C@@H](CC(N)=O)C(=O)N[C@@H](CCC(=O)O)C(=O)N[C@@H](Cc1ccc(O)cc1)C(=O)N[C@@H](Cc1ccc(O)cc1)C(=O)NCC(=O)N[C@@H](Cc1c[nH]c2ccccc12)C(=O)N[C@H](CCSC)C(=O)N[C@@H](CC(C)C)C(=O)N[C@H](CCSC)C(=O)N[C@@H](CS)C(=O)N[C@@H](C(=O)N[C@@H](CCSC)C(=O)NCC(=O)N[C@@H](CCCNC(=N)N)C(N)=O)[C@H](C)O
# B10: AP533d (peptide)
# peptide: Ac-RGE[dNle]N[dY]F[dW]MNEYYGW[dT]M[dN]M[dR]CGK-NH2
# modifications: also: disulfide-linked homodimer via Cys21
# Target: Aβ42 (UniProt P05067 672-713)
# Experiment: cell-based or functional assay
# Sequence of Aβ42 (P05067 672-713 limits assumed): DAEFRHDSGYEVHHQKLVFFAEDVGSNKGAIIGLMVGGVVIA
Binder,"% inhibition of fibril formation (ThT), AP:Aβ42 1:1 [%]","% inhibition of fibril formation (ThT), AP:Aβ42 1:10 [%]","% inhibition of fibril formation (ThT), AP:Aβ42 1:100 [%]"
B1,100,100,72.2
B2,100,88.6,62.4
B3,78.2,31.6,0
B4,37.2,9.1,0
B5,92.6,78.6,38.5
B6,62.1,0,0
B7,94.2,75.4,64.3
B8,40.3,0,0
B9,29.2,0,0
B10,85.2,68.2,51.4
